To fix the notation:
T1: MERS-CoV spike antigens (bead panel) (MERS-CoV, UniProt K9N5Q8 18-1296)
T1 sequence: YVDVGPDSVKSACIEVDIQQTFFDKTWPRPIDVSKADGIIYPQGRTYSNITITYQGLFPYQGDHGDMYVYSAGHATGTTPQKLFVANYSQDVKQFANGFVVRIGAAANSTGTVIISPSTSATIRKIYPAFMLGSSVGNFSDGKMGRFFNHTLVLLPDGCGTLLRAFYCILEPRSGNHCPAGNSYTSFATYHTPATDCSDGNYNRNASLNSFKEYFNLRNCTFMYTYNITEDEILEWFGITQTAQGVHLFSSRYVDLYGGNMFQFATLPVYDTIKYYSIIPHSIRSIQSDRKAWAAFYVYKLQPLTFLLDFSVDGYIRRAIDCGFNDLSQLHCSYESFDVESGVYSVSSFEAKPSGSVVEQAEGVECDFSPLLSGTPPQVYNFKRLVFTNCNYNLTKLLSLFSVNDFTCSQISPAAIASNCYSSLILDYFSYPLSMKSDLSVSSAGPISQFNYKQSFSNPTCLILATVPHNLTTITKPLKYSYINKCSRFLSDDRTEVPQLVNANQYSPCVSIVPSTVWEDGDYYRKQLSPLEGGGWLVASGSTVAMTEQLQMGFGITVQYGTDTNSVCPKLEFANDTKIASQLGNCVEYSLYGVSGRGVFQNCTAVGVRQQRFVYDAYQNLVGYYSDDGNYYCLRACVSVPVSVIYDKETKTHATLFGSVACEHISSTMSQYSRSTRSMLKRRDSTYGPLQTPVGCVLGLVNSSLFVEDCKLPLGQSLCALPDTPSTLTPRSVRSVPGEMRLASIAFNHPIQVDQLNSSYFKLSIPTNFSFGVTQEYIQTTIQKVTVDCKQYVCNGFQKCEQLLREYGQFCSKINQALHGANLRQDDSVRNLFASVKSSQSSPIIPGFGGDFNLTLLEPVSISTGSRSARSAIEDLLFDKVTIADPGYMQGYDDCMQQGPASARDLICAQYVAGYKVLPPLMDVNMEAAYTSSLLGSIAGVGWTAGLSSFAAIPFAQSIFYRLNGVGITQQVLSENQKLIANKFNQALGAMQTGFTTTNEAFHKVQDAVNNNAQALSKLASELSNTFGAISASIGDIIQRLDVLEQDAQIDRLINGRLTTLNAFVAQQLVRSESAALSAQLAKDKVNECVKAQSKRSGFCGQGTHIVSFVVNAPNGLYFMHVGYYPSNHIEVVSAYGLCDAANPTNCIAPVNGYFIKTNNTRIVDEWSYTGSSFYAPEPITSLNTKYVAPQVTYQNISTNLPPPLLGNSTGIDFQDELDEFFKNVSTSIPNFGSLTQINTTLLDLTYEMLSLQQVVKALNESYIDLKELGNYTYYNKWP

B1: COV_2123 (antibody, V domains shown)
VH: EVQLVESGGGVVQPGRSLRLSCAASGFTFSSYAMHWVRQAPGKGLEWVAVLSYDGSNKYNADSVKGRFTISRDNSKNTLYLQMNSLRVEDTAMYYCARDGVSVTMVRGVIGPLCDYWGQGTLVTVSS
VL: not shown
notes: human IgG1
B2: COV_2035 (antibody, V domains shown)
VH: QVQLVQSGAEVKKPGASVKVSCKVSGYTLPELSIHWVRQAPGKGLEWLGGFDPEDGKIIYAQKFQGRVTMTEDTSTDTAYMELSSLRSEDTAVYYCATSPAVVERGWFDPWGQGTLVTVSS
VL: QSALTQPPSASGSPGQSVTISCTGTSSDVGGYNYVSWYQQHPGKAPKLMIYEVSKRPSGVPDRFSGSKSGNMASLTVSGLQAEDEANYYCSSYAGSKRVFGGGTKLTVL
notes: human IgG1
B3: COV_2008 (antibody, V domains shown)
VH: QVRVVQSGAEVKNPGASVKVSCKVSGYTLTELSIHWVRQAPGNGLEWMGGFDPEDGETIYAQKFQGRVTMTEDTSTDTAYMELSSLRSDDTAVYYCATAGAITGTPRNFYYYYGMDVWGQGTTVTVSS
VL: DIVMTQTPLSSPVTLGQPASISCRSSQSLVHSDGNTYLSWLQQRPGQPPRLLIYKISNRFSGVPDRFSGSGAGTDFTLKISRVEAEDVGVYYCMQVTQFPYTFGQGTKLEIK
notes: human IgG1
B4: COV_2004 (antibody, V domains shown)
VH: QVQLVQSGAEVKKPGASVKVSCKASGYTFTGYYMHWVRQAPGQGLEWMGRINPSSGGTNYAQKFQGRVTMTRDTSISTAYMELSSLRSDDTAVYYCATDGDDGENWFDPWGQGTLVIVSS
VL: DIQMTQSPSSLSASVGDRVTITCRASQGISSWLAWYQQKPEKAPKSLIYAASSLQSGVPSRFSGSGSGTDFTLTISSLQPEDFATYYCQQYNSYPYTFGQGTKLEIK
notes: human IgG1
B5: COV_2103 (antibody, V domains shown)
VH: EVQLVESGGGVVQPGRSLRLSCGASGFTFSSYGIHWVRQAPGKGLDWVAVIWHDGSQKYYGDSVKGRFTISRDNSKNTLYLQMNRLRAEDTAVYYCARDSGDDYDSSGYPIGNAFDLWGQGTMVTVSS
VL: DIQMTQSPSTLSASVGDRVTITCRASQFINSWLAWYQQKPGKAPKLLIYKASSLETGVPSRFSGSGSGTEFTLTISSLQPDDFATYYCQQYNTYSFTFGPGTKVDIK
notes: human IgG1
B6: COV_2054 (antibody, V domains shown)
VH: EVQLVESGGGVLQPGRSLRLSCAASGFTFNNYALHWVRQAPGKGLEWVAVISYDGSSKYYADSVRGRLTISRDNSRNTLYLQMNSLRPEDTAIYYCARDGDGLWLGESFYFDDWGQGTLVTVSS
VL: DIQMTQSPSTLSASVGDRVIITCRASQSISSWLAWYQQKPGKAPKLLIYEASTLQSGVPSRFSGSGSGTEFTLTISSLQPDDSATYYCQQYNSYPVHFSQGTKLEIK
notes: human IgG1
B7: COV_2037 (antibody, V domains shown)
VH: QVQLVQSGAEVKKPGASVKVSCKVSGYTLTELSMHWVRQAPGKGLEWMGGFDPEDAETIYAQKFQGRVTMTEDTSTDTAYMELSSLRSEDTAVYYCATAGAITGTPTNYSYYYGMDFWGQGTTVTVSS
VL: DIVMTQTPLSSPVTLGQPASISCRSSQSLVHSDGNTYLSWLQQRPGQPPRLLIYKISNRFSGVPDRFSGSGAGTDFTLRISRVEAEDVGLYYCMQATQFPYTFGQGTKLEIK
notes: human IgG1
B8: COV_2028 (antibody, V domains shown)
VH: QVQLQESGPGLVKPSGTLSLTCVVSGGSISSSNWWSWVRQPPGKGLEWIGEIYHSGSTNYNPSLKSRVTISVDKSKNQFSLRLTSVTAADTAVYYCARGWNYDYWGQGTLVTVSS
VL: QSALTQPASVSGSPGQSITIACTGTSSDVGSYNLVSWYQQHPGKAPKLMIYEVSKRPSGLSNRFSGSKSGNTASLTISGLQAEDEADYYCYSYAGSSTWVFGGGTKLTVL
notes: human IgG1
B9: COV_3077 (antibody, V domains shown)
VH: QVQLQESGPGLVKPSETLSLTCAVSGYSISSGYYWGWIRQPPGKGLEWIGSIYHSGSTYYNPSLKSRVTISVDTSKNQFSLKLSSVTAADTAVYYCARALYDAFDIWGQGTMVTVSS
VL: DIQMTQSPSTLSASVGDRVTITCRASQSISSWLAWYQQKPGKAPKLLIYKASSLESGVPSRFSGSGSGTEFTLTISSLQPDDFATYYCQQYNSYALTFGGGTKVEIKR
notes: human IgG1
B10: COV_1050 (antibody, V domains shown)
VH: QVQLVESGGGVVQPGRSLRLSCAASRFTFSSYAMHWVRQAPGKGLEWVAVISFDGSNKYYADSVKGRFTIFRDNSKNTLSLQMNSLRTEDTAMYYCASPAGYYESLWGQGTLVTVSS
VL: SYELTQPPSVSVSPGQTARVTCSGDALSKQYGFWYQQKPGQAPTLVIYKDTERPSGIPERFSGSGSGTTVTLTISGVQAEDEADYYCQSTDNSGRWVFGGGTKLTVLG
notes: human IgG1
B11: COV_2014 (antibody, V domains shown)
VH: QVQLVQSGAEVKKPGASVKVSCKVSGYTLTELSMHWVRQAPGKGLEWMGGFDPEDGETIYAQKFQGRVTMTEDTSTDTAYMELSSLRSEDTAVYYCATGKINYYDSSGYYGTFDYWGQGTLVTVSS
VL: B4 VL with D1A, M4L, W32Y, E41G, S46L, S53T, Y91L, P95H, Y96L, K103R
notes: human IgG1
B12: COV_3088 (antibody, V domains shown)
VH: EVQLVESGGGLVQPGGSLRLSCAASGFTFSSYDMHWVRQATGKGLEWVSAIGTAGDTYYPGSVKGRFTISRENAKNSLYLQMNSLRAGDTAVYYCARGSGWPPFFDYWGQGTLVTVSS
VL: SYELTQPPSVSVAPGKTARITCGGNNIGSKSVHWYQQKPGQAPVLVIYYDSDRPSGIPERFSGSNSGNTATLTISRVEAGDEADYYCQVWDSSSDHHWVFGGGTKLTVL
notes: human IgG1
B13: COV_2174 (antibody, V domains shown)
VH: EVQLAESGGGLVKPGGSLRLSCAASGFTFSDYYMSWIRQAPGKGLEWVSYISSSGSTIYYADSVKGRFTISRDNAKNSLYLQMNSLRAEDTAVYYCARDWSVVVVPAAPAVDVWGQGTTVTVSS
VL: DIQMTQSPSSLSASVGDRVTITCRASQGISNYLAWFQQKPGKAPKSLIYAASSLQSGVPSKFSGSGSGTDFTLTISSLQPEDFATYYCQQYNSYPLTFGGGTKVEIKR
notes: human IgG1

Residue numbers refer to the chain shown, from its start.

The first assay addresses T2, SARS-CoV-2 S on pseudovirions (Wuhan Hu-1 / IL1/2020, last 18 amino acids removed) (SARS-CoV-2, UniProt P0DTC2 14-1273). In words: cell-based or functional assay.
Regarding B1, the “IC50, pseudotyped neutralization assay” value amounted to 4 ng/mL.

A further assay addresses T3, SARS-CoV-2 NTD (1-290) (SARS-CoV-2, UniProt P0DTC2 14-290).
T3 construct: range 1-290
The assay can be described thus: BLI, 1:1 model.
B2: the Kd is less than 1 pM.
On to B3, for which the Kd is less than 1 pM.
On the same count and under the same terms, the figure for B4 is less than 1 pM; for B5 it is less than 1 pM; for B6 it is less than 1 pM.
The same measure, in the same setting: the figure for B7 is less than 1 pM; for B8 it is 40.7 pM.

The target of a further assay is T1, MERS-CoV spike antigens (bead panel). The assay can be described thus: multiplex bead assay.
Regarding B9, the binding result is recorded as “no binding”.
On the same count and under the same terms, the entry for B10 is “no binding”.
As for B4, the binding result is “no binding”.
Same read-out and setting: with B11 the entry was “no binding”; with B12, “no binding”.
Still for that read-out and setting: the entry for B13 is “no binding”.

For another assay, the target named is T2, SARS-CoV-2 S on pseudovirions (Wuhan …). The assay can be described thus: cell-based or functional assay. The source holds these as a separate data set.
Regarding B9, the “Mean IC50, pSV neutralization” value was not below 25 µg/ml and the “Mean IC80, pSV neutralization” value was not below 25 µg/ml.
Turning to B2, the “Mean IC50, pSV neutralization” value turned out to be 0.04 µg/ml and the “Mean IC80, pSV neutralization” value is not below 25 µg/ml.
For B10, in that order: not below 25 µg/ml and not below 25 µg/ml.
Regarding B3, the “Mean IC50, pSV neutralization” value turned out to be 0.02 µg/ml and the “Mean IC80, pSV neutralization” value is 0.31 µg/ml.
For B4, in that order: 0.04 µg/ml and 3.64 µg/ml.
For B11, in that order: not below 25 µg/ml and not below 25 µg/ml.
For B12, in that order: not below 25 µg/ml and not below 25 µg/ml.
For the molecule B5, the “Mean IC50, pSV neutralization” value is not below 25 µg/ml and the “Mean IC80, pSV neutralization” value was not below 25 µg/ml.
Take B6: the “Mean IC50, pSV neutralization” value was not below 25 µg/ml and the “Mean IC80, pSV neutralization” value is not below 25 µg/ml.
Regarding B13, the “Mean IC50, pSV neutralization” value came to 0.502 µg/ml and the “Mean IC80, pSV neutralization” value stood at 2.04 µg/ml.
For B7, in that order: 0.07 µg/ml and not below 25 µg/ml.
As to B8, the “Mean IC50, pSV neutralization” value was not below 25 µg/ml and the “Mean IC80, pSV neutralization” value was not below 25 µg/ml.
As for B1, the “Mean IC80, pSV neutralization” value came to 0.03 µg/ml.

(Values after US20240101645A1 (HENRY M JACKSON FOUNDATION FOR THE ADVANCEMENT OF MILITARY …, published 2024).)
